Assay results as given in article PMC11497598.

Assays:
Experiment in all cases: analytical SEC
Details in all cases: cell culture supernatant of Expi293F cells; parent: est. 72; read off a plot
[1] = molecular target: B/Iowa/06/2017 HA HA1 152W
[2] = molecular target: B/Iowa/06/2017 HA HA1 T211L
[3] = molecular target: B/Iowa/06/2017 HA HA1 T218I
[4] = molecular target: B/Iowa/06/2017 HA HA2 67A
[5] = molecular target: B/Iowa/06/2017 HA HA2 91V
[6] = molecular target: B/Iowa/06/2017 HA HA2 111L
[7] = molecular target: B/Iowa/06/2017 HA HA2 E113N
[8] = molecular target: B/Iowa/06/2017 HA HA2 H22F
[9] = molecular target: B/Iowa/06/2017 HA HA2 H22W
[10] = molecular target: B/Iowa/06/2017 HA HA2 H114F
[11] = molecular target: B/Iowa/06/2017 HA HA2 H114N

Substance: wild-type soluble hemagglutinin (HA) of influenza B/Iowa/06/2017 HA1:152W
- other: trimer fraction [1]: 81%

Substance: wild-type soluble hemagglutinin (HA) of influenza B/Iowa/06/2017 HA1:T211L
- other: trimer fraction [2]: 95%

Substance: wild-type soluble hemagglutinin (HA) of influenza B/Iowa/06/2017 HA1:T218I
- other: trimer fraction [3]: 82%

Substance: wild-type soluble hemagglutinin (HA) of influenza B/Iowa/06/2017 HA2:67A
- other: trimer fraction [4]: 64%

Substance: wild-type soluble hemagglutinin (HA) of influenza B/Iowa/06/2017 HA2:91V
- other: trimer fraction [5]: 77%

Substance: wild-type soluble hemagglutinin (HA) of influenza B/Iowa/06/2017 HA2:111L
- other: trimer fraction [6]: 55%

Substance: wild-type soluble hemagglutinin (HA) of influenza B/Iowa/06/2017 HA2:E113N
- other: trimer fraction [7]: 96%

Substance: wild-type soluble hemagglutinin (HA) of influenza B/Iowa/06/2017 HA2:H22F
- other: trimer fraction [8]: 91%

Substance: wild-type soluble hemagglutinin (HA) of influenza B/Iowa/06/2017 HA2:H22W
- other: trimer fraction [9]: 81%

Substance: wild-type soluble hemagglutinin (HA) of influenza B/Iowa/06/2017 HA2:H114F
- other: trimer fraction [10]: 75%

Substance: wild-type soluble hemagglutinin (HA) of influenza B/Iowa/06/2017 HA2:H114N
- other: trimer fraction [11]: 57%
